PMC3326539 (The Journal of biological chemistry, 2005)

Tests used:
crystal structure = target: the molecule itself; experiment: crystal structure
[1] = target: T1, ArnA C-terminal decarboxylase domain (T316M to S660) (E. coli, UniProt P77398 316-660, T316M); experiment: SEC
T1 sequence (looked up): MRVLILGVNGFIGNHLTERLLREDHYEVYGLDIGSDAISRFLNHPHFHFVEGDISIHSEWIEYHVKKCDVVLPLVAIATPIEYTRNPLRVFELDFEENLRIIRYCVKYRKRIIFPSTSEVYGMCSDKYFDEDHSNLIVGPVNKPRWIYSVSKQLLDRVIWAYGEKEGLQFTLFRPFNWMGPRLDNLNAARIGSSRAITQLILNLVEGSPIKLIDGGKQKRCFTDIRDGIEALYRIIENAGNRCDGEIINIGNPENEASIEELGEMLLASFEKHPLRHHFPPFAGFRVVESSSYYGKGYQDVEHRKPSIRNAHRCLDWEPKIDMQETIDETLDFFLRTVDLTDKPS

Kd [1]: > 5 mM
B1: ArnA N-terminal formyltransferase domain (residues M1 to N305) (domain or fragment, E. coli, UniProt P77398 1-305, looked up)
chain: MKTVVFAYHDMGCLGIEALLAAGYEISAIFTHTDNPGEKAFYGSVARLAAERGIPVYAPDNVNHPLWVERIAQLSPDVIFSFYYRHLIYDEILQLAPAGAFNLHGSLLPKYRGRAPLNWVLVNGETETGVTLHRMVKRADAGAIVAQLRIAIAPDDIAITLHHKLCHAARQLLEQTLPAIKHGNILEIAQRENEATCFGRRTPDDSFLEWHKPASVLHNMVRAVADPWPGAFSYVGNQKFTVWSSRVHPHASKAQPGSVISVAPLLIACGDGALEIVTGQAGDGITMQGSQLAQTLGLVQGSRLN
binding result (crystal structure): binds
